Results published in patent US10323078B2, “Isolated peptides and fragments thereof from fibrinogen for use as drugs, particularly in skin inflammatory diseases” (Universite Paris Descartes, priority 2015, dated 2019).

Columns and labels:
[1] = system: HaCaT, NHDK, THP-1, MRC5 and HDF; assay: H2O2 production by cells stimulated with P. acnes, overall statement for the five cell lines; type: cell-based, human; conditions: pretreatment of P. acnes strains with small peptide 2.5 to 20 μM; five cell lines and three strains tested
Description: FIG. 17: Dose-dependent inhibition of H2O2 production by fibroblast pre-treated by small Fg1-generated peptides and stimulated by P. acnes. MRC5 cell were incubated for 24 h with small peptides Fg1.1 (light gray bar), Fg1.2 (horizontal line bar), Fg1.3 (hatched bar), Fg1.4 (dark gray bar), Fg1.5 (dotted bar) at concentrations ranging from 2.5 to 20 μM. Measurement of hydrogen peroxide production was realized by spectrofluorometry as described in Materials and Methods. Controls experiments were done with unstimulated MRC5 cell (white bar) and MRC5 stimulated with P. acnes (black bar). Data are means±S.D. of three separate experiments. Statistical significance is indicated by * (P<0.05), ** (P<0.01), *** (P<0.001), and **** (P<0.0001), respectively.
All cells lines (5·10^4 to 10^5 cells/well) were seeded in 96-well plates (Corning Costar, Brumath, France) and treated as previously described. After stimulation, cells were washed three times in PBS and incubated with 100 μl per wells of 5 μM DHE (for determination of O2^●−) or 5 μM H2-DCFDA (for determination of H2O2) for 30 min as described previously and fluorescence intensity was recorded every hour over a period of 5 h. Fluorescence excitation/emission maxima were for DHE: 480/610 nm and for H2-DCFDA: 507/525 nm. At the end of the experiment, the number of adherent cells was evaluated by the crystal violet assay as described below. O2^●−, and H2O2 were assayed by spectrofluorimetry on a Fusion spectrofluorimeter (PackardBell, Paris, France). Levels of ROS were calculated in each sample as follows: reactive oxygen species rate (arbitrary units/min/10^6 cells)=(fluorescence intensity [arbitrary units] at T5h—fluorescence intensity [arbitrary units] at To/300 minutes/number of adherent cells as measured by the crystal violet assay, and were expressed as arbitrary unit (A.U.).
To assess the efficacy of the small Fg1-related peptide, the production of H2O2 by several cell lines (HaCaT, NHDK, THP-1, MRC5 and HDF) stimulated by three P. acnes strains 6919, RON and PIE was measured, in presence or not with the small peptides. The amount of H2O2 produced is compared to that produced by the stimulated cells with untreated bacteria. Production baseline is obtained by measuring H2O2 on unstimulated cells. The measurement of the production of H2O2 is performed by spectrofluorimetry in the presence of specific fluorochromes directly on the monolayer cell.
Two sets of experiments have been implemented: • I) The cells are stimulated (18 h at 37° C.) by P. acnes strains previously pretreated with Fg1.1, Fg1.2, Fg1.3, Fg1.4, and Fg1.5 small peptides at the final concentrations ranging from 2.5 to 20 μM for 1 h at 37° C.; • II) The cells are pretreated first with the five small peptides at the final concentrations ranging from 2.5 to 20 μM for 24 h at 37° C. and stimulated (18 h at 37° C.) by P. acnes strains.
FIG. 17 corresponds to the results obtained with the P. acnes RON strain on the fibroblast MRCS cell line and are representative of the results obtained with all P. acnes and cells lines tested (Table 6).

[2] = system: Pfg; assay: Western ligand blot with biotinylated Pfg; type: binding, Propionibacterium acnes; conditions: biotinylated Pfg 0.1 μg/ml; for Recognition of GST-fused recombinant Bß fibrinogen fragments by biotinylated Pfg: E. coli total protein after IPTG induction, 12.5% SDS-PAGE; for Recognition by biotinylated Pfg after electrophoretic separation of fibrinogen: 10 μg per lane, 10% SDS-PAGE
Description: FIG. 5: Binding of P. acnes surface proteins to fibrinogen. (A) Various quantities of human fibrinogen (hFg) and bovine fibrinogen (bFg) were immobilized onto a 96-well polystyrene plate at 4° C. for 18 h and incubated with biotinylated Pfg at 0.1 μg/ml for 2 h at 23° C. Bovine serum albumin (BSA) was used as negative control. Bound material was detected by using the HRP-streptavidin conjugate. Peroxidase activity was measured by using the ABTS substrate at 405 nm. Proteins (10 μg per lane) were separated by 10% SDS-PAGE and detected by (B) Commassie blue staining, and transferred to nitrocellulose membrane and incubated with (C) HRP-streptavidine alone, and (D) biotinylated Pfg (0.1 μg/ml). Lanes 1: molecular weight standards. Lane 2: BSA. Lane 3: hFg. Lane 4: bFg.
FIG. 8: Cloning of Bß human fibrinogen fragments and binding with Pfg. (A) Cloning and expression of recombinant human Bß fibrinogen fragments Fg1, Fg2, Fg3 and Fg4. Fibrinogen fragments were obtained by RT-PCR and expression plasmids were constructed as described in Materials and Methods. (B) GST-fused proteins were expressed in E. coli, fractionated by 12.5% SDS-PAGE, and detected by Coomassie blue staining (B), and incubated with biotinylated Pfg (0.1 μg/ml) as described in Materials and Methods (C).
To characterize the interaction between P. acnes and ligands, we used biotinylated molecules in quantitative and qualitative assays. In a first set of assays, ECM ligands (fibrinogen, collagens I, IV, VI and VIII) were used as labelled proteins with biotin. In a second set of assays, P. acnes surface proteins (total extract and purified Pfg) were biotinylated. For quantitative analysis, unlabeled protein were diluted into 50 mM carbonate-bicarbonate, pH 9.6 buffer to yield a protein concentration ranging from 0.01 to 50 μg/ml, and then immobilized to 96-well polystyrene plates at 4° C. overnight. The wells were rinsed three times with 0.2 ml of PBS containing 0.05% Tween-20 (PBS-Tween). Biotinylated proteins (0.01 to 16 μg/ml in PBS-Tween) were added to the wells and incubated at room temperature for 1 h. The wells were rinsed three times with 0.2 ml of PBS-Tween. Peroxidase conjugated to streptavidin (0.5 μg/ml in PBS-Tween) was added and incubated for 30 min at room temperature. After washing, bound peroxidase was detected using the chromogenic peroxidase substrate ABTS. For qualitative analysis, unlabelled protein (10-75 μg per lane) were separated by SDS-PAGE and then transferred to nitrocellulose membranes (0.45 μm pore size), as described previously (Towbin, 1979). Membranes were then saturated overnight at 4° C. in PBS containing 5% BSA, 0.05% Tween-20 (PBT buffer). Binding activity was detected by incubating the membranes with 20 ml of PBT containing biotinylated proteins (0.1 μg/ml) for 2 h at room temperature followed by three washes with PBT. Bound biotinylated proteins were detected by incubating the membrane with peroxidase conjugated to streptavidin (0.5 μg/ml in PBT) for 1 h at room temperature. After washing, bound peroxidase activity was detected using 3,3′-diaminobenzidine in the presence of CoCl2 and H2O2 (Harlow and Lane, 1988).
Since it was shown that Pfg is recognized by fibrinogen, this ECM ligand was used to analyze the nature of this interaction. First it was analyzed the ability of fibrinogen to be recognized by purified Pfg (FIG. 5). Human and bovine Fg (hFg, bFg) were immobilized to polysterene plate and the binding activity of biotinylated Pfg was measured. […] It has been shown that fibrinogen is a glycoprotein containing both N- and O-linked glycans (Debeire 1985; Reid Townsend 1982; L'Hôte 1996). […] In parallel, deglycosylation was assessed by visualization of a shift in the mobility after electrophoresis separation and Coomassie blue staining (FIG. 6A, lanes 3 and 5) and also by using the RCA-I plant lectin able to recognize ß-linked galactosyl residues in terminal position (FIG. 6C) (Green, 1987). […]

## YRARPAKAAATQKKVERKAPDAGGCLHADPDLGVLC (fragment Fg1.3) [small peptide generated from Fg1]
[1]
  Inhibition of H2O2 production: did not

## NEEGFFSARGHRPLDKKREEAPSLRPAPPPISGGG (fragment Fg1.2) [small peptide generated from Fg1]
[1]
  Inhibition of H2O2 production: did not

## APSLRPAPPPISGGGYRARPAKAAATQKKV (fragment Fg1.5) [small peptide generated from Fg1, overlapping Fg1.2 and Fg1.3]
[1]
  Inhibition of H2O2 production: did not

B1: PTELLIEMEDWKGDKVKAHYGGFTVQNEANKYQISVNKYRGTAGNALMDGASQLMGENRTMTIHNGMFFSTYDRDNDGWLTSDPRKQCSKEDGGGWWYNRCHAANPNGRYYWGGQYTWDMAKHGTDDGVVWMNWKGSWYSMRKMSMKIRPFFPQ (protein)
chain: PTELLIEMEDWKGDKVKAHYGGFTVQNEANKYQISVNKYRGTAGNALMDGASQLMGENRTMTIHNGMFFSTYDRDNDGWLTSDPRKQCSKEDGGGWWYNRCHAANPNGRYYWGGQYTWDMAKHGTDDGVVWMNWKGSWYSMRKMSMKIRPFFPQ
modifications: fragment Fg4
notes: recombinant fragment of Bß sub-unit of human fibrinogen
[2]
  Recognition of GST-fused recombinant Bß fibrinogen fragments by biotinylated Pfg: only Fg1 was recognized

B2: γ subunit: γ chain of fibrinogen (protein, UniProt P02679 27-453, looked up)
Fibrinogen gamma chain: YVATRDNCCILDERFGSYCPTTCGIADFLSTYQTKVDKDLQSLEDILHQVENKTSEVKQLIKAIQLTYNPDESSKPNMIDAATLKSRKMLEEIMKYEASILTHDSSIRYLQEIYNSNNQKIVNLKEKVAQLEAQCQEPCKDTVQIHDITGKDCQDIANKGAKQSGLYFIKPLKANQQFLVYCEIDGSGNGWTVFQKRLDGSVDFKKNWIQYKEGFGHLSPTGTTEFWLGNEKIHLISTQSAIPYALRVELEDWNGRTSTADYAMFKVGPEADKYRLTYAYFAGGDAGDAFDGFDFGDDPSDKFFTSHNGMQFSTWDNDNDKFEGNCAEQDGSGWWMNKCHAGHLNGVYYQGGTYSKASTPNGYDNGIIWATWKTRWYSMKKTTMKIIPFNRLTIGEGQQHHLGGAKQVRPEHPAETEYDSLYPEDDL
[2]
  Recognition by biotinylated Pfg after electrophoretic separation of fibrinogen: No recognition

B3: Bß subunit: sub-unit Bß of human fibrinogen, SEQ ID NO: 1 (protein)
chain: MKRMVSWSFHKLKTMKHLLLLLLCVFLVKSQGVNDNEEGFFSARGHRPLDKKREEAPSLRPAPPPISGGGYRARPAKAAATQKKVERKAPDAGGCLHADPDLGVLCPTGCQLQEALLQQERPIRNSVDELNNNVEAVSQTSSSSFQYMYLLKDLWQKRQKQVKDNENVVNEYSSELEKHQLYIDETVNSNIPTNLRVLRSILENLRSKIQKLESDVSAQMEYCRTPCTVSCNIPVVSGKECEEIIRKGGETSEMYLIQPDSSVKPYRVYCDMNTENGGWTVIQNRQDGSVDFGRKWDPYKQGFGNVATNTDGKNYCGLPGEYWLGNDKISQLTRMGPTELLIEMEDWKGDKVKAHYGGFTVQNEANKYQISVNKYRGTAGNALMDGASQLMGENRTMTIHNGMFFSTYDRDNDGWLTSDPRKQCSKEDGGGWWYNRCHAANPNGRYYWGGQYTWDMAKHGTDDGVVWMNWKGSWYSMRKMSMKIRPFFPQQ
modifications: homo sapiens; sub-unit Bbeta of fibrinogen
[2]
  Recognition by biotinylated Pfg after electrophoretic separation of fibrinogen: strongly recognized

B4: KLESDVSAQMEYCRTPCTVSCNIPVVSGKECEEIIRKGGETSEMYLIQPDSSVKPYRVYCDMNTENGGWTVIQNRQDGSVDFGRKWDPYKQGFGNVATNTDGKNYCGLPGEYWLGNDKISQLTRMGPTELLIEMEDWKGDKVKAHYGGFTVQNE (protein)
chain: KLESDVSAQMEYCRTPCTVSCNIPVVSGKECEEIIRKGGETSEMYLIQPDSSVKPYRVYCDMNTENGGWTVIQNRQDGSVDFGRKWDPYKQGFGNVATNTDGKNYCGLPGEYWLGNDKISQLTRMGPTELLIEMEDWKGDKVKAHYGGFTVQNE
modifications: fragment Fg3
notes: as for B1
[2]
  Recognition of GST-fused recombinant Bß fibrinogen fragments by biotinylated Pfg: only Fg1 was recognized
